Measured values taken from patent publication US20040106773A1 (priority 2003, published 2004).
Each block holds one molecule with its values, some of them ahead of it.

Columns and labels:
[1] = test system: F-11 cells; conditions: DRG-like F-11 cells; cited from earlier work
[2] = target: rat PTH2R (rat, UniProt P70555 25-546); test: cell-based or functional assay
[3] = target: T1, rat PTH2R (Rattus norvegicus, UniProt P70555); test: cAMP SPA assay for PTH2R activation, rat PTH2R; format: cell-based; conditions: HEK293 cells expressing rat PTH2R, FIG. 4A
T1 construct: V5-His (appears only in the vector name); expressed in transfected cells
T1 sequence (P70555 25-546): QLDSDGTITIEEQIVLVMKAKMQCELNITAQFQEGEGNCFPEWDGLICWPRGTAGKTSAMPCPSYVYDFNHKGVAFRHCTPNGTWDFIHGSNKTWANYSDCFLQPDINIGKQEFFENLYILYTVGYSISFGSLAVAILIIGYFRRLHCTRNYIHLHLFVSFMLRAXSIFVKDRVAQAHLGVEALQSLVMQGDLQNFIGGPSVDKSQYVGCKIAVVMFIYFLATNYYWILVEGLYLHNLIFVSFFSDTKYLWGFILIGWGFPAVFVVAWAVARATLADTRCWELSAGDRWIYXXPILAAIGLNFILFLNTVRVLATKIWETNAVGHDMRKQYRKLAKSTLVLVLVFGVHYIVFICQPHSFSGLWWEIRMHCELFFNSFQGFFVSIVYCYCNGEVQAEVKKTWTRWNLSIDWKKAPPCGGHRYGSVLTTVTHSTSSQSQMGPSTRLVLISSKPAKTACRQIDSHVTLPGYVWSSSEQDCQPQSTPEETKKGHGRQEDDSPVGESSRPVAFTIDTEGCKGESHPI
Source text: (§1) HEK293 cells were transfected with rat and human PTH2R and cell lines that stably express the receptors were established and evaluated. One cell line was selected for each rat and human PTH2R and used for all the functional assays. Specifically, HEK293 cells were transfected with pCDNA3.1/V5-His-RatPTH2R plasmid DNA and pCDNA3.1-E/Uni-lacZ-HumanPTH2R plasmid DNA using FuGENE 6 transfection reagent (Roche Molecular Biochemicals). Three days after transfection, cells were put under selection with 800 μg/ml geneticin (G418, Gibco BRL). After three weeks of selection, single colonies were cloned using cloning cylinders. Cloned colonies were scaled up to T25 flasks. More than 10 cell lines for each plasmid were tested for function in the cAMP SPA assay.
(§2) HEK293PTH2R cells were seeded in a 96-well poly-D-lysine coated plate at 100,000 cells per well and cultured overnight. After washing with 200 μl of PBS and treating with 100 μl of 300 nM IBMX in assay medium (MEM without phenol red and FBS) at 37° C. for 10 min. The assay medium was then aspirated and the cells were washed with PBS. The cellular of cAMP was measured using cAMP SPA Direct Screening (Amersham/Pharmacia RPA559). Each concentration of ligand was repeated as triplicate.

[4] = target: T2, human PTH2R (Homo sapiens, UniProt P49190); test: cAMP SPA assay for PTH2R activation, human PTH2R; format: cell-based; conditions: HEK293 cells expressing human PTH2R, FIG. 4B
T2 construct: expressed in transfected cells
T2 sequence (P49190 25-550): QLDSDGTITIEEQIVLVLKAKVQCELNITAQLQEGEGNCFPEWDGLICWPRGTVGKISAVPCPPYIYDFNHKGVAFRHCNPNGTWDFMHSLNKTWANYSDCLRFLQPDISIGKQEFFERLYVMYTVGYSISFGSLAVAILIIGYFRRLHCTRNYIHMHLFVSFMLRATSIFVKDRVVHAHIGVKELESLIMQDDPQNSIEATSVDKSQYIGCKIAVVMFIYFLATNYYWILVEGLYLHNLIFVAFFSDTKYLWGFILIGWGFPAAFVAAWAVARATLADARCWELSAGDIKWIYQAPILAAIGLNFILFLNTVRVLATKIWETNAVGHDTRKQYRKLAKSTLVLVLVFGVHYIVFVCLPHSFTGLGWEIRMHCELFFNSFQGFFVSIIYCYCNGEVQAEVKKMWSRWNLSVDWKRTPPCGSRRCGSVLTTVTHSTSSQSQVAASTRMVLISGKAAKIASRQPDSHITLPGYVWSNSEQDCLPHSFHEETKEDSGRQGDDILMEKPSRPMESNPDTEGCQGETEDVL
Source text: as §1, §2

[5] = target: T1, rat PTH2R; test: Measurement of [Ca2+]i using the FLIPR, rat PTH2R; format: cell-based
Source text: as §1
(§3) HEK293 cells were seeded into […] clear-base 96 well plates (BD Biocoat) coated with poly-D-lysine at a density of 100,000 cells per well in MEM, and cultured overnight.
(§4) Curve-fitting and parameter estimation were carried out using Graph Pad Prism, 3.00 (GraphPad Software Inc., California, U.S.A.).

[6] = target: T2, human PTH2R; test: Measurement of [Ca2+]i using the FLIPR, human PTH2R; format: cell-based; conditions: human PTH2R expressing HEK293 cells
Source text: as §1, §3, §4

[7] = target: human PTH2R (human, UniProt P49190 25-550); test: cell-based or functional assay
Chain of human PTH2R (human, UniProt P49190 25-550) (P49190 25-550): as above

Chain of rat PTH2R (rat, UniProt P70555 25-546) (P70555 25-546): as the sequence (P70555 25-546) above

maximal level of cAMP (pmol/100,000 cells) [2]: < 29 | maximum [Ca2+]i response compared to that of human TIP39 [2]: 30%
Molecule: rat PTH(1-34) (from UniProt P04089 32-65) (peptide)

maximum response compared to that of human TIP39 ([5]; rat PTH2R expressing cells, [Ca2+]i FLIPR): ~30% | maximum response compared to that elicited by human TIP39 ([6]; [Ca2+]i FLIPR): 42±2%
Molecule: rat PTH(1-34)

logEC50, [Ca2+]i increase (FLIPR) [2]: -7.3 | logEC50, cAMP increase (cAMP SPA assay) in HEK293 cells stably expressing rat PTH2R [2]: -9.9 | logEC50, [Ca2+]i increase (FLIPR) [7]: -7.8 | logEC50, cAMP increase (cAMP SPA assay) in HEK293 cells stably expressing human PTH2R [7]: -9.7
Molecule: SLALADDAAFRERARLLAALERRRWLDSYMQKLLLLDAP [mouse tuberoinfundibular peptide of 39 residues]

Further lines, the molecule ahead of its results:

Molecule: bovine tuberoinfundibular peptide of 39 residues [bTIP39]
effect on cAMP [1]: increases cAMP

Molecule: human PTH(1-34)
relative potency, cAMP [3]: slightly less potent | relative potency, cAMP [4]: slightly less potent than the other peptides | agonist character, [Ca2+]i response ([5]; rat PTH2R expressing HEK293 cells): little response if any | agonist character, [Ca2+]i response [6]: little response

Molecule: human PTH (1-34) (from UniProt P01270 32-65) (peptide)
logEC50, cAMP increase (cAMP SPA assay) in HEK293 cells stably expressing rat PTH2R [2]: -9.3 | maximal level of cAMP (pmol/100,000 cells) [2]: < 29
